Consider one molecule from article PMC7617732 (2024).

Among the targets are m6; 3FTx-L8; m7.
Experiment in all cases: SPR
Assay [1] concerns the target T1, 3FTx-L2 (recombinant long-chain three-finger α-neurotoxin variant).
T1 chain: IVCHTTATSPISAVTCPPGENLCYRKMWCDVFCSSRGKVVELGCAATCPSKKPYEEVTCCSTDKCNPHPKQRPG

In assay [2] the target is T2, 3FTx-L15 (recombinant long-chain three-finger α-neurotoxin variant).
T2 chain: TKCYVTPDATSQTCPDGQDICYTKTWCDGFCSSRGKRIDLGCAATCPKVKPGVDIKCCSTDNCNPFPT

B1: 95Mat5 (human IgG) (antibody, V domains shown)
VH: QVQLVQSGAEVKKPGSSVKVSCKASGGTFSSYAISWVRQAPGQGLEWMGGYIPIFGTANYAQKFQGRVTITADESTSTAYMELSSLRSEDTAVYYCARIPLRWYESGPYESGVFDYWGQGTLVTVSS
VL: not shown
As for B1, the Kd is 0.72 nM in assay [1]; 0.61 nM in assay [2]; 0.11 nM with m6; under 0.01 nM with 3FTx-L8; 0.24 nM in the assay with m7.
